According to article PMC9483116, “Deubiquitination of BES1 by UBP12/UBP13 promotes brassinosteroid signaling and plant growth” (Plant Communications, 2022):

Columns and labels:
Assay in all cases: pull-down; in vitro; GST-tagged proteins bound to glutathione resin as bait, MBP-tagged proteins incubated with them; about 2 ug of each protein; immunoblot with anti-myc or anti-MBP
Conditions in all cases: both partners purified
[1] = target: T1, GST-UBP12 (full-length) (Arabidopsis thaliana, UniProt Q9FPT1 1-1116)
T1 construct: UBP12 (ubiquitin-specific protease 12), Arabidopsis thaliana, At5g06600; full length (1-1116 by the limits printed for its N and C derivatives); not shown: GST, N-terminal, kept
T1 sequence (looked up): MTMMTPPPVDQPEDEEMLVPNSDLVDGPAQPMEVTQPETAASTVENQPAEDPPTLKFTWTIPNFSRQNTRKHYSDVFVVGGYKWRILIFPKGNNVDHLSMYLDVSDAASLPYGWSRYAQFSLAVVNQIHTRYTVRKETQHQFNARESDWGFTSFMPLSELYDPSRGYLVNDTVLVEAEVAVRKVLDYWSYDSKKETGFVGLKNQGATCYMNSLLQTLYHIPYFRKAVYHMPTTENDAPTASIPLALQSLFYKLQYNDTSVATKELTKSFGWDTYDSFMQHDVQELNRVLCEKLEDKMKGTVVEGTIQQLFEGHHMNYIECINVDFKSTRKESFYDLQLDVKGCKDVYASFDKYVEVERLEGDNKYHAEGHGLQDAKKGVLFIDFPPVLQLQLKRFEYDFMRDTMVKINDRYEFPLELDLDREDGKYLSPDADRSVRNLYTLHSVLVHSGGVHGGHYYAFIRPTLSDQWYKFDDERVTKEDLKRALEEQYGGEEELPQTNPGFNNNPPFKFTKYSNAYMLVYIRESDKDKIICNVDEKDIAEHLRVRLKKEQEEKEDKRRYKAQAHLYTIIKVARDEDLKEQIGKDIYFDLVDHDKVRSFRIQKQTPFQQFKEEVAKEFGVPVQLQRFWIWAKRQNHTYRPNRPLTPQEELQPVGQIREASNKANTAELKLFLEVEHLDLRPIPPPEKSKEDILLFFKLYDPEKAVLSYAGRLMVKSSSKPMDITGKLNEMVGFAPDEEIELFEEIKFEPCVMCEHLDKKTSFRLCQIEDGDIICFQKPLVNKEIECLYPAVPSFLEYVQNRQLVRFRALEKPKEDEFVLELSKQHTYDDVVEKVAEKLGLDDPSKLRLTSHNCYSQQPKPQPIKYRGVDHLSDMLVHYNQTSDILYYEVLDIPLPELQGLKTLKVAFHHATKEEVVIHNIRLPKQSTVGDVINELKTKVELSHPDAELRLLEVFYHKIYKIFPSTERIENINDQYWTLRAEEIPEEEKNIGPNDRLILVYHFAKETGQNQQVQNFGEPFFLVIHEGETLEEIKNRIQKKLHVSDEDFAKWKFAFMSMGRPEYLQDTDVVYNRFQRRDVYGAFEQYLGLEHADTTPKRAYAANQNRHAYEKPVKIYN

[2] = target: T2, GST-UBP13 (full-length) (Arabidopsis thaliana, UniProt Q84WU2 1-1115)
T2 construct: UBP13 (ubiquitin-specific protease 13), Arabidopsis thaliana, At3g11910; full length
T2 sequence (looked up): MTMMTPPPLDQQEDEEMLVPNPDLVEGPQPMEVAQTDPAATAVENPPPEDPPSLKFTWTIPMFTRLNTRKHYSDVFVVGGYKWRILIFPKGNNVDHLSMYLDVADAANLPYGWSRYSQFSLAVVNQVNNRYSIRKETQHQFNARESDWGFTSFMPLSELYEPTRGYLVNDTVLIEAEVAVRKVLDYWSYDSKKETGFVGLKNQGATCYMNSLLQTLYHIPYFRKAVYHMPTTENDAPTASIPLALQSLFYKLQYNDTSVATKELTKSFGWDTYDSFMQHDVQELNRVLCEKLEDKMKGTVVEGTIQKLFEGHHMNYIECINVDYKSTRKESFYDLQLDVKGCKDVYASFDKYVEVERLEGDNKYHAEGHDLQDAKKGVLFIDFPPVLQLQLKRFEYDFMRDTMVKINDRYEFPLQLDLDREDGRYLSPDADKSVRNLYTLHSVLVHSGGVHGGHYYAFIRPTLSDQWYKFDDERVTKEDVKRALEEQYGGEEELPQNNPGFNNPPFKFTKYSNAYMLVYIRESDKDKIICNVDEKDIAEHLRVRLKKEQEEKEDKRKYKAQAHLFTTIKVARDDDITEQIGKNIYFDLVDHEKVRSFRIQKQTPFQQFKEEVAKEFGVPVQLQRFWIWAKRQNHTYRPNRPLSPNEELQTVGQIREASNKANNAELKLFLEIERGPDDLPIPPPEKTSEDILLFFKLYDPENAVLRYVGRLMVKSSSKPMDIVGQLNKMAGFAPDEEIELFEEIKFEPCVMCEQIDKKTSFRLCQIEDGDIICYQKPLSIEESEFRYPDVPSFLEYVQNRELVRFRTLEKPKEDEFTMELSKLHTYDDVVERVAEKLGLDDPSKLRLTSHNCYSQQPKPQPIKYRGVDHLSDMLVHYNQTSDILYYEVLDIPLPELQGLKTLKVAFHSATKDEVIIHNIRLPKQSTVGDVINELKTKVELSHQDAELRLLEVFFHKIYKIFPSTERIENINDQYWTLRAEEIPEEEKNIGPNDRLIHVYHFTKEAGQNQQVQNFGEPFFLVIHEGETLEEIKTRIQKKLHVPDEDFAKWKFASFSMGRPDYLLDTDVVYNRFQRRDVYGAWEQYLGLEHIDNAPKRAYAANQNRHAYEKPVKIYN

[3] = target: T3, GST-UBP12-N (N-terminal region of UBP12, amino acids 1–541) (Arabidopsis thaliana, UniProt Q9FPT1 1-541)
T3 construct: UBP12, Arabidopsis thaliana, At5g06600; N-terminal region, amino acids 1-541, with the MATH domain and the cysteine/histidine-containing catalytic domain
T3 sequence (looked up): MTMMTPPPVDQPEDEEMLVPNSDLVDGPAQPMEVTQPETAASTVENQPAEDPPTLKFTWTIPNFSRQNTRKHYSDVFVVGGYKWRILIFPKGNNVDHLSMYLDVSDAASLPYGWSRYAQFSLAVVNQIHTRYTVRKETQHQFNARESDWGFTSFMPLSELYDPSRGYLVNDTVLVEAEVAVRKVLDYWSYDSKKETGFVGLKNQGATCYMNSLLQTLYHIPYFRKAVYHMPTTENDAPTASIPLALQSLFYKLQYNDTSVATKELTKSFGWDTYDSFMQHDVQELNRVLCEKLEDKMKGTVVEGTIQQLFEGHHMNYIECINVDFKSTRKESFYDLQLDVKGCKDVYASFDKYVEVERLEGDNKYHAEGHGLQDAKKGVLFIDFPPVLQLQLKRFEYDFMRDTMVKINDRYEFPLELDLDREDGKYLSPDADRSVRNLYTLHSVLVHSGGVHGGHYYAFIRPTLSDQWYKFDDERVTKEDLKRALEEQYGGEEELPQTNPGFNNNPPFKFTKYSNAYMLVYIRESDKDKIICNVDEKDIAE

B1: MBP-BES1-myc (BRI1-EMS-SUPPRESSOR 1) (natural protein, Arabidopsis thaliana, UniProt Q9LN63 1-335, looked up)
chain: MTSDGATSTSAAAAAAAMATRRKPSWRERENNRRRERRRRAVAAKIYTGLRAQGNYNLPKHCDNNEVLKALCSEAGWVVEEDGTTYRKGHKPLPGDMAGSSSRATPYSSHNQSPLSSTFDSPILSYQVSPSSSSFPSPSRVGDPHNISTIFPFLRNGGIPSSLPPLRISNSAPVTPPVSSPTSRNPKPLPTWESFTKQSMSMAAKQSMTSLNYPFYAVSAPASPTHHRQFHAPATIPECDESDSSTVDSGHWISFQKFAQQQPFSASMVPTSPTFNLVKPAPQQLSPNTAAIQEIGQSSEFKFENSQVKPWEGERIHDVAMEDLELTLGNGKAHS
notes: BES1 (BRI1-EMS-SUPPRESSOR 1), Arabidopsis thaliana, At1g19350; source: E. coli BL21 (DE3) pLysS, purified (amylose resin); not shown: MBP, N-terminal, kept; 6x myc, C-terminal, kept
B1: binds [1]; binds [2]; binds [3].

B2: MBP-BZR1-myc (BRASSINAZOLE RESISTANT1) (natural protein, Arabidopsis thaliana, UniProt Q8S307 1-336, looked up)
chain: MTSDGATSTSAAAAAAAAAAARRKPSWRERENNRRRERRRRAVAAKIYTGLRAQGDYNLPKHCDNNEVLKALCVEAGWVVEEDGTTYRKGCKPLPGEIAGTSSRVTPYSSQNQSPLSSAFQSPIPSYQVSPSSSSFPSPSRGEPNNNMSSTFFPFLRNGGIPSSLPSLRISNSCPVTPPVSSPTSKNPKPLPNWESIAKQSMAIAKQSMASFNYPFYAVSAPASPTHRHQFHTPATIPECDESDSSTVDSGHWISFQKFAQQQPFSASMVPTSPTFNLVKPAPQQMSPNTAAFQEIGQSSEFKFENSQVKPWEGERIHDVGMEDLELTLGNGKARG
notes: BZR1 (BRASSINAZOLE RESISTANT1), Arabidopsis thaliana, At1g75080; source: E. coli BL21 (DE3) pLysS, purified (amylose resin); not shown: MBP, N-terminal, kept; 6x myc, C-terminal, kept
B2: binds [1]; binds [2].
